Results on two molecules are retold here after patent US20100216721A1.

The target of experiment [1] is HIV-1 92UG037-08 gp120 (HIV-1 strain 92UG037-08). The experiment in a line: SPR (Biacore 3000); peptide over immobilized gp120. In general terms: SPR reads the build-up and loss of mass on a sensor chip optically.
The target in experiment [2] is HIV-1 SF162 gp120 (HIV-1 strain SF162), P19550. Description: SPR (Biacore 3000); peptide over immobilized gp120.

B1: HNG-105 (peptide)
peptide: RINNIPWSEAMM
modifications: not checked
For orientation: Kd means a measure of binding affinity in units of concentration. The low end stands for a tighter complex, the high end for a looser complex. On to B1, for which the Kd in experiment [1] is 1840 nM; in experiment [2] it was 70.5 nM.

B2: HNG-156 (peptide)
peptide: RINNIPWSEAMM
modifications: not checked
B2: the Kd in experiment [1] was 16.3 nM; in experiment [2], 9 nM.
